Series [1] concerns the target rat brain farnesyl:protein transferase (rat) (UniProt Q04631). Nature of the series: cell-based or functional assay.

In the case of “CVIM with glutamic acid at the A2 position (peptide)”, in series [1], the fold decline of affinity for the enzyme was above 50 fold.
Consider “CVIM with glycine at the A2 position (peptide)”, for which the concentration giving 50% inhibition (farnesyl transfer to p21^H-ras) in series [1] amounted to 8 µM.
Consider “CVIM with lysine at the A2 position (peptide)”, for which, in series [1], the fold decline of affinity for the enzyme was above 50 fold and the fold decrease of affinity for the enzyme against CVIM was above 30 fold.
For rat brain farnesyl:protein transferase, the “farnesylation of the peptide (substrate activity)” value with biotinylated KTSCVIM is reported as “The studies with the biotinyated heptapeptide ( FIG. 12B ) confirm that at least some of the short peptides act as substrates for the enzyme”.

The values above are taken from US6632626.
